Assay results reported in a protein production outcome set (Wang et al. 2014).

Assay: label from the status in PepcDB records
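Note: failed if final PepcDB status was selected cloned or expressed and not failed if soluble or beyond.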

Sequence	protein production
MTLSFFRPRARKVTAAVLLMTWLAPVSPLALAQPASVPAAPAGAAAAEQVQSNLNRSVQIGRQSPYLQKDATIIDAPTYELPDMGDPSTAALSPEMERRLGDRVMRQIRRDPDYVPDPLLSDYLNDIGYRLIEAARRQHVAGSTSASSFELFAVRDPGINAFALPGGYIGVNTGTLVATESESELASVLGHEIGHVLQRHIARGIDKSGESMWIALASILLAGLAATKSGDAAQALAVGGQAAAVSNQLAFSRGAEREADRVGFTLLTGAGYNPDGMPDFFRRLQRVSSIADTGAVPGYARTHPLTGERIADMEDRARGLPHPRQPQRPAFGFAKARARVLQETSTSAYLDVRNAMRSQLASAPDAPAEKRAALWYGIAVAEQLAGQLDPAEQALLEARRLYGNIPGLTSGSPSLDVTAIELARARNRVPEALTMARAALAAYPLSRAVGITYAQTLLAAGRAGDAIPYLQDKAREDTAQPIWWDMLARAYADQGKRVEQHRALAEKYARDGAWGAAVEQLKLARDAGDADFYTLSEVDARLHQMERQYREEKQEEKALPK	failed
MTLSKQLKTYITERFKLNYQDTWSCETVDAVAEDVLPEKYIKNSPLEHKILNTFTYYNDELHEISIYPFLCYLDKELIAIGYLDNFDLDFIFLNDTHQIIIDERYLLQKGGELEHHHHHH	failed
MTLTMGFIGFGKSANRYHLPYVNTRKNIKVKTIFARQINEELAAPYEEKGVSFTTNLDELLNDKEIQVVTVCTPAHTHYELAKKVILAGKSVIVEKPFCDTVEHAKELLALGREKGVVVMPYQNRRFDGDFLAVKQVVEQGFLGDIVEVESHIDYFRPGSINHEGPKEEGSFYSLGIHTMDRMISLFGRPDTVTYDIRNNEVDGAVDNYFDVGLHYGNQLKIKLKTNHVVAKDYPRFIVHGTNGSFIKYGEDQQENDLKAGIMPESAGFGEDSPMYYGIAKYRNANGDWIEKQIKTPLGDYGRFYDAAYETIVNGAPKLVKDEEAVTNIEILENGFAAPSPSVYKLEALNLNE	failed
MTLTPEAEIALFLRRLKWAAVIVGVLWVVSLLAPILTPFVLALLLAWLGDPLVDRIERAGRSRNVAVVLVFVLATLLFVLALMILVPMIERQIMTLIDALPQMRNWAIGTAIPWLEAKTGMQLMAWLDPERLIDWIRSHWEQAGGAAKTLFGYVSRSGFAMVTWVINLALLPILAFYFLRDWDRLVERVAAVIPRAYIGTASRLAQESNDVLGGFIRGQFLVMLALGAIYATGMSIIGLNLGLLIGIIAGLISFIPYLGATTGIVLALLAAIVQAQGLDLKLLIGVGVVFTVGQLLESYVLTPRIVGDKIGLHPVAVIFAVMAGGQLFGFLGMLLALPVAAVANVLLRYAHEQYTRSDLYAGERAGIVLRSTPERSVIIDPSKDADRL	failed
MTLVEFPAITFAAVVCWAVGSLLQIPAKNSKVSGPLSWLFLFSGTLVLVWFLASYWIALDRPPLRTLGETRLWYATLIPVVGFLVEYRYKIGWLKYYCMGLATVFLGINYMHPDVFEKALMPALQSPWFVPHVVVYLVGYVLLAASAVSGWHNVFLNFRGKRSAKGESMAHYLALLGFVLLTFGLIFGALWAKEAWGHYWTWDPKETWAFISWLAYLGYLHLVACKTDPRKLQWYLGLAFFVLLVCWFGVNYLPSAQNSVHTYSGAS	failed
MTMAVGTFKQSRFQLPLPRLSVMDRYLFVELFLPFIFGMGMFTSLALSIGTLFDLVRRVTESGLPMDIAVKILFLKMPEFVVLAFPMSMLLASLMAYSRLSSDSELIALRSIGVSIYRLVVPALLFGIVVTGIAFVFNDRITPAASYEALATLDRAIHQDRPPRQEQNIIYPEYGMVRQPDGNEKNILKRLFYAEEFNGSEMKGLTILDRTQSGVNQVLTAERASWNISENTWDFYDGTVYLIAPDGSYRNIVRFRHQQLALPRAPLDLASQERKDGEMTIAQSRRYLEVLRLSGDDKKVRKLEVRIQKKYALPFVCFVFGLIGAAIGVRPQNTNKATSFGICVGLIFFYYLLSFLSESMGIWGALDPFTAAWLPNFLGLIAGTILLVQSSRLR	failed
MTMDNFSIRPMKRSELDVVIDWAAIEGWNPGIYDAECFYQADQCGFFVGELNNELVASISAVAYSQHFAVIGFYIVKEQFRGRGFGMKMWRTAMAYLGSERNISLDGVIAQQENYKKSGFQIAYRHIRYQV	failed
MTMEALQFLLAAPPGAYDPVARTIEDEPRPSQPPTSALALDIRGLRKSFGDNDVLRGIDLHIPAGQFVTIVGRSGCGKSTLLRLIAGLETPTAGHIVFGEDKLPGDVRVMFQEPRLLPWARVLANVEVGLGTERNSPDARARADAALIEVGLDDKRGEWPAVLSGGQKQRVALARALVSRPRVLAFDEPLGALDALTRIAMQRLLEQVWQAQGFTAILVTHDVAEAVALADRVLVIEDGRIAKDLPIDLPRPRQRGSAELAALEGEILRDLLKGAEDTFEL	failed
MTMIEPDPADFEPIHPYSLARISHVALQAGAVLAQSGASVRVVHEGARMVAEGLGVEVLGMRSGYASFEITLARGHHSFTRMTQIGPHGVNHRLDFAVRDLLKRAARGDMTPDAIEAELKRLQSETPRHPPWLVAIATGAACAAFGRLLGSDWLSFGPVLAAASIGQGVRHLLLGRRFNVFVVAAIVGCISAALGGLGARLIGSSTTELAMMASILLLVPGVPSTNAQTDVMDGYPTMGSARAVTVIMIMVFAVTGLWLAEFVLRIHT	failed
MTMITFSARLAPFQPETVWTLEAGTLIETRGRIERRFPLSSLTRYSLSLAPDGRRRVLLVVFGRRRLLIPSQSYVGPGRFEDRLAAFSVLARALAAVGADLSPRARFGLARLEARTALTFVMGLLAFGAASTLLFSLTAGMVAVGVDLAARMAFVLILMVAALPWLARPADFDPRDPPADLLP	failed
MTMKKSEITVALAGNANVGKSVIFNQLTGSNQIVGNWPGKTVERAEGYLKFQGRDIHIIDLPGIYSFSTYSMEEIVSRDFIINEGPDVVINVLDASVLERNLFFTLQLMEMEVPMVICINQVDMARQKGITIDDEKLEKVLGVPVVSTVAVKGRGLQELLRKTVEVADKKTLPRIIEYGEEIETRIGKLMDALPEIPEGYSARWVAIKLLENDPQITAMMPEDVRKLASELAAEIESIHGEPAFSVITSERYAISSMIAAGAQRQEEIKTSLSERLDGFLTHPVYGYISSVLVVGGLLLWTFVVGEFLSDTLTGIFGFFQPVDPKFSGSIESIIWNGAFGGIVAGLTLVIPFVIPFYLMLSYIENSGLLTRVAFMMDAFMRKIGLHGKALIPLILGYGCSVPAIDSTRILETHRERLLAAFAISFAPCAARTILILGLVALFVNVWWAIGLYALDLLIIFIMGKVALKALPGETTGLIMEMHSLKMPSFRVIARQTWTRTRSLIYLVFPIYIIGSALIQLLYALGWLNPISAFMAPLTVGWLKLPVFAGILLILGAVRKEFILLGLVSLVGTNIGAALTAPQILVLTLVGMLYFPCLSTIAILAREFSWRSTSIITLANLGTALFLGGLFARILPLIF	failed
MTMPRLASSRWWYIMPIVFVTYSLAYLDRANYGFAAASGMADDLRITPGLSSLLGALFFLGYFFFQVPGAIYAEKRSVKKLIFVSLILWGGLATLTGMVANVYLLIGIRFLLGVVEAAVMPAMLVYLCHWFTRAERSRANTFLILGNPVTILWMSVVSGYLVEHFSWRWMFIIEGLPAVIWAFIWWRLVDDRPRQAAWLSGSEKRDLEDALAAEQQGIKPVKNYREAFRSPKVIVLSLQYFCWSIGVYGFVLWLPSILKHGANIDIIEAGWLSALPYLAAVIAMLGVSWASDRLQKRKRFVWPPLLIASIAFYGSYALGSEHFWLSYALLVLAGACMYAPYGPFFAIVPEVLPANVAGGAMALINSMGALGSFSGSWLVGYLNGITGGPGASYLFMSGALLLSVLLTVFLNPHADKREPDAARAHASRRAAPAHP	failed
MTMRVVTAPAEPPQGASHVAPSFTRMDTSVLGRWWWTVDRPMLGAVALLIAAGVFLILAAGPPAAGRIGAQTYHFVQRQFLFVPVAGVLVIAVSLLPVLWVRRIAVLLFALFMVLLLGTLFVSSDIKGASRWIAIGPFALQPSEFVKPTFAVVTAWMFASARTQDRFPGNLIAMLLMAVVGALLVAQPDFGMTMVVACVWGTQFFLAGLSLVWVVLLAAVGMIGAVIAYFALPHVQSRVDRFLDPASGDQYQIRQSMKAFMEGGLFGRGPGEGRVKEFLPDAHTDFIFAVAGEEFGLFLCLTIVALFAFLIIRSAIRLRREQNLFVLIAAGGLLTQLGLQALINMASSLSLIPTKGMTLPFISYGGSSLLSTAVAMGMVLALTRRRAHGERT	failed
MTMSTTREIAFLIARILLGVILIAHGWDKFAITGLEGVTGFFDSLGIPAAGIAAIAAAVVELLGGILIILGVFTRIVAAFVAIDMLFAALFAHVSSGIFVTNNGWELTGAIGAGALLLIAVGAGAWSIDGVLAKRKA	failed
MTNKAIKATNEELQQVYNDIPKAYDRANRFISFNQDVKWRADLVKTILKYCKRPKLILDVASGKGELSYTFKKIYKDNSNYEIILSDYAENMLKMALIKDDKVLCSFDALPFREKTFDIVMSSFALHASDNIEDVIREITRVSRKIVGFIAMGKPDSWVRRIYLSIYLKYIMPYIAVLGGAKARDFKYIYYIYERVPTNSQHKRIFEKYIDIKVYEERALNLFYFVVGFPKE	failed
MTNKITERITGHTELIGLIATPIRHSLSPTMHNEAFAKLGLDYVYLAFEVGDKELKDVVQGFRAMNLRGWNVSMPNKTNIHKYLDKLSPAAELVGAVNTVVNDDGVLTGHITDGTGYMRALKEAGHDIIGKKMTICGAGGAATAICIQAALDGVKEISIFNRKDDFYANAEKTVEKINSKTDCKAQLFDIEDHEQLRKEIAESVIFTNATGVGMKPFEGETLLPSADMLRPELIVSDVVYKPTKTRLLEIAEEQGCQTLNGLGMMLWQGAKAFEIWTHKEMPVDYIKEILF	not failed
MTNKQKMRKRRRALLCVFAAFAFSFNPLGKIAYATPKQDTSVVNYVKTQEETSNSIQNQPISSYWYPEDLLKWSANNDKDAKFNKSTVPLAKRVEKDKLDTINDTQNKDVKVVAISIMNANTSGNPSQGSNKFSANTFSYWQYIDKLVYWGGSAGEGLIVPPSPDVTDSAHRNGVPVLGTVFFPMTAHGGKMEWLNKFLEKDANGNFPIVDKLIEVAENYGFDGWFINQETEGTEQEPLTPEHAKLMQELIKQFKAKSNGKFEIMWYDSMTKDGDMDWQNALTDKNEYFLLDGDKNKVADSIFLNFWWTYNSLKDKDLLRVSNEKAKEIGINPYDLYAGIDVQANGYKTPLRWTHYQRDDQAPFTSLGLYCPSWTYFDAKTPEQFQENENRLWVNEHGDPSKTTNAQGVDWRGISTYSVEKSAVTSLPFTTNFNIGNGYDFYVDGNKVSTQDWNNRSLNDIMPTYRWVISNEENNNVKADIDYTTAYYGGNSIKLSGYLAEGKASTIKLYSSDLTLPEGVQFTTTAKANGNTVDMDLVLTFHDGTETTISADKKLGTDWTKLNYDVSPYVGKSIKTISYKLSSPVCVDNFSANLGNITIEIPNSSSKVNISNAKLNDVDFKDGIYAGARLSWSPEGNSSDVHHYEIYRVMNDGTKVLLGATPNTSYYVSDLRRNDKETNTNFEVVAVNKNFNRGNSQSINMEWPAYPAPTASFKVSNTLIAPGQSVTFTNTSSEVTEEIQWKFPGAKVESSTEQNPTVTYEKEGVYPVILTAKNSSGENVETKTELITVTNAAKDGLVNLSLNKSAKASSFVNENEAPQYALDGNVKTKWCAVGSAPHTLTIDLGDIKTIGELEISHAEAGGESSGMNTKAYSFEVSNDGENFTPVLNVDDNTKAISNDAFPVTKARYVRLNIIQPTQGADSAARIYEVAVKGLDGNVDLPPVMNPDDSNKPVDPDQPENPDKPNNPEKPENPDNPGNTDKPVNPDQPGDSEKPETPNKPGDTENPEGKPANPSDLVSKEITENSALLSWKAPEKVESIQEYVVYQDGKEIGRVPTDKTPLEFLVKDLKPNTKYNFEVSSIDKDGKESDKISLEVTTKKKDNGNLPNTGSPIGAGALATTGIALSSAGVYLTLKKKRK	failed
